From patent US20050130265 come the findings set out here.

For data set [1], the target named is Helios (Mus musculus) (UniProt P81183). Put plainly: cell_activity. The following applies: NIH3T3 reporter; requires Ikaros sites.
For data set [2], the target named is Ikaros (UniProt Q03267). Put plainly: cell_activity. The note with it: NIH3T3 reporter.
Sequence of Ikaros (Q03267 other isoform, or with tags, fused parts or gaps): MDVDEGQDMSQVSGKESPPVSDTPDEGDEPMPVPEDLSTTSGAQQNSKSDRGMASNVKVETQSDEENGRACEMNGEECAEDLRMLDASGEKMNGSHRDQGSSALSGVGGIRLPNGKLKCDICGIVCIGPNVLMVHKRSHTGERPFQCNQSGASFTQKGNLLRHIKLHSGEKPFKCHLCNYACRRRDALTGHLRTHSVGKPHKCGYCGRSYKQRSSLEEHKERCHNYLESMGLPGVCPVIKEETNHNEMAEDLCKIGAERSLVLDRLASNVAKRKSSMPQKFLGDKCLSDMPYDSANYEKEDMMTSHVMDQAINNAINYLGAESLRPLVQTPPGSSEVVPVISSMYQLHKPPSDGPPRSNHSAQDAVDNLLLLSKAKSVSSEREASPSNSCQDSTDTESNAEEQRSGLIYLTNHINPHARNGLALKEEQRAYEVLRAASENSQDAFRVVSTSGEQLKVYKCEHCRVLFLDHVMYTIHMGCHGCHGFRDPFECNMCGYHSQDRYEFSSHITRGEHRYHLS

Sequence of Helios (Mus musculus) (P81183 other isoform, or with tags, fused parts or gaps): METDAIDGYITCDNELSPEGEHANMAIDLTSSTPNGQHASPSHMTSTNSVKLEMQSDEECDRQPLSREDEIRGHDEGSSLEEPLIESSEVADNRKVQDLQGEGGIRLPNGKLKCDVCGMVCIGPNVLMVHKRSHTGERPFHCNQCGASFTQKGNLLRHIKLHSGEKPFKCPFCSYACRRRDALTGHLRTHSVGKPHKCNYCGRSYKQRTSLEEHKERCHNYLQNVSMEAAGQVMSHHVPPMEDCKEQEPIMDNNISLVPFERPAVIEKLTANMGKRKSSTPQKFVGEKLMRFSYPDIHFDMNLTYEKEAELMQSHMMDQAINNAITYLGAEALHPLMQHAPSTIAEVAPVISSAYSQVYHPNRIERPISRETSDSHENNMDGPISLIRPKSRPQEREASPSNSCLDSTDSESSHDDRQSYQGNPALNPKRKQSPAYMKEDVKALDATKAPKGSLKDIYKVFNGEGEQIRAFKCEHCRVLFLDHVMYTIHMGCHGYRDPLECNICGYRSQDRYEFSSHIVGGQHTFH

Consider 4x IkBS2 reporter, for which the activity (fold activation) turned out to be 5 in data set [1] and 7.8 in data set [2].
